Experimental data published in article PMC7388177 (Cell reports, 2020).

Columns and labels:
[1] = molecular target: T1, human ATG9A, purified in LMNG (mVenus-His tag cleaved) (human), Q7Z3C6; test: negative-stain EM; details: remark: other sources report otherwise
T1 chain: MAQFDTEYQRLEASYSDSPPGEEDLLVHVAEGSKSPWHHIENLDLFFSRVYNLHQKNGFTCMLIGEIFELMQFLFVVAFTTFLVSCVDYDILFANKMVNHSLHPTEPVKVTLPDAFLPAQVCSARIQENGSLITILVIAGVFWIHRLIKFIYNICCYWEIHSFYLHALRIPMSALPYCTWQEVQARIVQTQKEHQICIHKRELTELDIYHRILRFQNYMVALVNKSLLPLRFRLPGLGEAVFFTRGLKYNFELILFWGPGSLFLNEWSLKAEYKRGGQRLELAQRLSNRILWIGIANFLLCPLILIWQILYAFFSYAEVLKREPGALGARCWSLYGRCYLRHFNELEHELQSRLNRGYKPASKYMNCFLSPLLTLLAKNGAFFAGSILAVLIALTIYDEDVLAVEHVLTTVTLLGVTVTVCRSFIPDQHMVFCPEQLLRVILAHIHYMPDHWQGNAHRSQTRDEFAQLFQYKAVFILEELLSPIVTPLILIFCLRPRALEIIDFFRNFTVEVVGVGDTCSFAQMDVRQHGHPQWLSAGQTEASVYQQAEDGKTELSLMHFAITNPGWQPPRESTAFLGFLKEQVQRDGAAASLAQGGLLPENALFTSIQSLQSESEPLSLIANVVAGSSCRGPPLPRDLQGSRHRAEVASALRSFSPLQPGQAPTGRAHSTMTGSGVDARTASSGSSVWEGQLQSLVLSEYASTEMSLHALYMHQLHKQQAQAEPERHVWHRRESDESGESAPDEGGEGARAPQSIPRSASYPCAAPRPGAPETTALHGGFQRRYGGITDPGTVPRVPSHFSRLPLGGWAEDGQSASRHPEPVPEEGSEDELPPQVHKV

[2] = molecular target: T2, ATG9A-mVenus fusion protein in membranes (human), Q7Z3C6; test: cross-linking; details: remark: other sources report otherwise
T2 chain: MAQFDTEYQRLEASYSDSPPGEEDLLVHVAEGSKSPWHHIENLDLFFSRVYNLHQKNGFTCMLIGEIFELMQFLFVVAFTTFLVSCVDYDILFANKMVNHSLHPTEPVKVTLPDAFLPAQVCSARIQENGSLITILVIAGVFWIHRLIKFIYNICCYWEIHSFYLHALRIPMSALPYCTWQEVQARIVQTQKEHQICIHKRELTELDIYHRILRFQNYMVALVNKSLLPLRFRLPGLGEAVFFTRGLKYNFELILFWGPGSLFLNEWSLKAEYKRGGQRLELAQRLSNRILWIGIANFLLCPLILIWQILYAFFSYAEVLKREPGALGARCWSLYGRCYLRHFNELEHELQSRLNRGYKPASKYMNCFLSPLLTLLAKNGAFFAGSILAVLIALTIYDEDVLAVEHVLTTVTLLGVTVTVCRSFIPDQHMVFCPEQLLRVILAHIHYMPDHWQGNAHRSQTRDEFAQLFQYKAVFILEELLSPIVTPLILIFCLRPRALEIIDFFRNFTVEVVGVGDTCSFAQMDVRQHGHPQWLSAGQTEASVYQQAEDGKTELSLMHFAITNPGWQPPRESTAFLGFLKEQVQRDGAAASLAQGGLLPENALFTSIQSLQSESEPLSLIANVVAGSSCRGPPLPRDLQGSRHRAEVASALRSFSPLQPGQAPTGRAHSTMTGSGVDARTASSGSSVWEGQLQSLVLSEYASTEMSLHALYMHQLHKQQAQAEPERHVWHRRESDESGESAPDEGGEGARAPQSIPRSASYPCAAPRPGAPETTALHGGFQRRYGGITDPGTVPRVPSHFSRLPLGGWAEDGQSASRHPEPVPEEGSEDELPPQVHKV

[3] = molecular target: T3, endogenous ATG9A of HeLa cells (human (endogenous in HeLa)), Q7Z3C6; test: cross-linking; details: remark: other sources report otherwise
T3 chain: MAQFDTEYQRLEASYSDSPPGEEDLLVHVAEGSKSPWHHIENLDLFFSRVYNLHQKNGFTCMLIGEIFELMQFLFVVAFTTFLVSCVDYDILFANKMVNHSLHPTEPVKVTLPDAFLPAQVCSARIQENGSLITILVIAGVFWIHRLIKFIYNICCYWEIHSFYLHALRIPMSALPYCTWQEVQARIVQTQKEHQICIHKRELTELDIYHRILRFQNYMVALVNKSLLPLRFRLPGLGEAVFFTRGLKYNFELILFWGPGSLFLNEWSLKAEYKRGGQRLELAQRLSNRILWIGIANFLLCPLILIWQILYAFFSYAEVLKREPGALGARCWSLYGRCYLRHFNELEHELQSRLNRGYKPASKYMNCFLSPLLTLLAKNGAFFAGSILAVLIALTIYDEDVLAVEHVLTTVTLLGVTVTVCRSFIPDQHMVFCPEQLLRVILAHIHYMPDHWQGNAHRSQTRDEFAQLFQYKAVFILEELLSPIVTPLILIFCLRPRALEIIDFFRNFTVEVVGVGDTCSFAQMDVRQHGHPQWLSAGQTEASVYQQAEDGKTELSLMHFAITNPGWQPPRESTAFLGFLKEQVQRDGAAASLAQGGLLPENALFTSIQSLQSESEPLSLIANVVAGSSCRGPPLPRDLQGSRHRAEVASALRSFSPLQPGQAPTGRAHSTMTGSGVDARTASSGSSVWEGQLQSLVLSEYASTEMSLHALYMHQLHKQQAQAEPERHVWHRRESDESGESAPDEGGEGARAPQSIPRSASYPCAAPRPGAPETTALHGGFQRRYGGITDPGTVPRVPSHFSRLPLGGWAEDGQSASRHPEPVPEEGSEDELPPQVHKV

[4] = molecular target: the molecule itself; test: cross-linking

B1: human ATG9A, purified in LMNG (mVenus-His tag cleaved), Q7Z3C6 1-839 (natural protein)
chain: MAQFDTEYQRLEASYSDSPPGEEDLLVHVAEGSKSPWHHIENLDLFFSRVYNLHQKNGFTCMLIGEIFELMQFLFVVAFTTFLVSCVDYDILFANKMVNHSLHPTEPVKVTLPDAFLPAQVCSARIQENGSLITILVIAGVFWIHRLIKFIYNICCYWEIHSFYLHALRIPMSALPYCTWQEVQARIVQTQKEHQICIHKRELTELDIYHRILRFQNYMVALVNKSLLPLRFRLPGLGEAVFFTRGLKYNFELILFWGPGSLFLNEWSLKAEYKRGGQRLELAQRLSNRILWIGIANFLLCPLILIWQILYAFFSYAEVLKREPGALGARCWSLYGRCYLRHFNELEHELQSRLNRGYKPASKYMNCFLSPLLTLLAKNGAFFAGSILAVLIALTIYDEDVLAVEHVLTTVTLLGVTVTVCRSFIPDQHMVFCPEQLLRVILAHIHYMPDHWQGNAHRSQTRDEFAQLFQYKAVFILEELLSPIVTPLILIFCLRPRALEIIDFFRNFTVEVVGVGDTCSFAQMDVRQHGHPQWLSAGQTEASVYQQAEDGKTELSLMHFAITNPGWQPPRESTAFLGFLKEQVQRDGAAASLAQGGLLPENALFTSIQSLQSESEPLSLIANVVAGSSCRGPPLPRDLQGSRHRAEVASALRSFSPLQPGQAPTGRAHSTMTGSGVDARTASSGSSVWEGQLQSLVLSEYASTEMSLHALYMHQLHKQQAQAEPERHVWHRRESDESGESAPDEGGEGARAPQSIPRSASYPCAAPRPGAPETTALHGGFQRRYGGITDPGTVPRVPSHFSRLPLGGWAEDGQSASRHPEPVPEEGSEDELPPQVHKV
- stoichiometry N [1]: 3

B2: ATG9A-mVenus fusion protein in membranes, Q7Z3C6 1-839 (natural protein)
chain: MAQFDTEYQRLEASYSDSPPGEEDLLVHVAEGSKSPWHHIENLDLFFSRVYNLHQKNGFTCMLIGEIFELMQFLFVVAFTTFLVSCVDYDILFANKMVNHSLHPTEPVKVTLPDAFLPAQVCSARIQENGSLITILVIAGVFWIHRLIKFIYNICCYWEIHSFYLHALRIPMSALPYCTWQEVQARIVQTQKEHQICIHKRELTELDIYHRILRFQNYMVALVNKSLLPLRFRLPGLGEAVFFTRGLKYNFELILFWGPGSLFLNEWSLKAEYKRGGQRLELAQRLSNRILWIGIANFLLCPLILIWQILYAFFSYAEVLKREPGALGARCWSLYGRCYLRHFNELEHELQSRLNRGYKPASKYMNCFLSPLLTLLAKNGAFFAGSILAVLIALTIYDEDVLAVEHVLTTVTLLGVTVTVCRSFIPDQHMVFCPEQLLRVILAHIHYMPDHWQGNAHRSQTRDEFAQLFQYKAVFILEELLSPIVTPLILIFCLRPRALEIIDFFRNFTVEVVGVGDTCSFAQMDVRQHGHPQWLSAGQTEASVYQQAEDGKTELSLMHFAITNPGWQPPRESTAFLGFLKEQVQRDGAAASLAQGGLLPENALFTSIQSLQSESEPLSLIANVVAGSSCRGPPLPRDLQGSRHRAEVASALRSFSPLQPGQAPTGRAHSTMTGSGVDARTASSGSSVWEGQLQSLVLSEYASTEMSLHALYMHQLHKQQAQAEPERHVWHRRESDESGESAPDEGGEGARAPQSIPRSASYPCAAPRPGAPETTALHGGFQRRYGGITDPGTVPRVPSHFSRLPLGGWAEDGQSASRHPEPVPEEGSEDELPPQVHKV
- stoichiometry N [2]: 3

B3: endogenous ATG9A of HeLa cells, Q7Z3C6 1-839 (natural protein)
chain: MAQFDTEYQRLEASYSDSPPGEEDLLVHVAEGSKSPWHHIENLDLFFSRVYNLHQKNGFTCMLIGEIFELMQFLFVVAFTTFLVSCVDYDILFANKMVNHSLHPTEPVKVTLPDAFLPAQVCSARIQENGSLITILVIAGVFWIHRLIKFIYNICCYWEIHSFYLHALRIPMSALPYCTWQEVQARIVQTQKEHQICIHKRELTELDIYHRILRFQNYMVALVNKSLLPLRFRLPGLGEAVFFTRGLKYNFELILFWGPGSLFLNEWSLKAEYKRGGQRLELAQRLSNRILWIGIANFLLCPLILIWQILYAFFSYAEVLKREPGALGARCWSLYGRCYLRHFNELEHELQSRLNRGYKPASKYMNCFLSPLLTLLAKNGAFFAGSILAVLIALTIYDEDVLAVEHVLTTVTLLGVTVTVCRSFIPDQHMVFCPEQLLRVILAHIHYMPDHWQGNAHRSQTRDEFAQLFQYKAVFILEELLSPIVTPLILIFCLRPRALEIIDFFRNFTVEVVGVGDTCSFAQMDVRQHGHPQWLSAGQTEASVYQQAEDGKTELSLMHFAITNPGWQPPRESTAFLGFLKEQVQRDGAAASLAQGGLLPENALFTSIQSLQSESEPLSLIANVVAGSSCRGPPLPRDLQGSRHRAEVASALRSFSPLQPGQAPTGRAHSTMTGSGVDARTASSGSSVWEGQLQSLVLSEYASTEMSLHALYMHQLHKQQAQAEPERHVWHRRESDESGESAPDEGGEGARAPQSIPRSASYPCAAPRPGAPETTALHGGFQRRYGGITDPGTVPRVPSHFSRLPLGGWAEDGQSASRHPEPVPEEGSEDELPPQVHKV
- stoichiometry N [3]: 3

B4: ATG9A-mVenus (N57C + P371C) (natural protein, human, UniProt Q7Z3C6 1-839, looked up)
chain: MAQFDTEYQRLEASYSDSPPGEEDLLVHVAEGSKSPWHHIENLDLFFSRVYNLHQKCGFTCMLIGEIFELMQFLFVVAFTTFLVSCVDYDILFANKMVNHSLHPTEPVKVTLPDAFLPAQVCSARIQENGSLITILVIAGVFWIHRLIKFIYNICCYWEIHSFYLHALRIPMSALPYCTWQEVQARIVQTQKEHQICIHKRELTELDIYHRILRFQNYMVALVNKSLLPLRFRLPGLGEAVFFTRGLKYNFELILFWGPGSLFLNEWSLKAEYKRGGQRLELAQRLSNRILWIGIANFLLCPLILIWQILYAFFSYAEVLKREPGALGARCWSLYGRCYLRHFNELEHELQSRLNRGYKPASKYMNCFLSCLLTLLAKNGAFFAGSILAVLIALTIYDEDVLAVEHVLTTVTLLGVTVTVCRSFIPDQHMVFCPEQLLRVILAHIHYMPDHWQGNAHRSQTRDEFAQLFQYKAVFILEELLSPIVTPLILIFCLRPRALEIIDFFRNFTVEVVGVGDTCSFAQMDVRQHGHPQWLSAGQTEASVYQQAEDGKTELSLMHFAITNPGWQPPRESTAFLGFLKEQVQRDGAAASLAQGGLLPENALFTSIQSLQSESEPLSLIANVVAGSSCRGPPLPRDLQGSRHRAEVASALRSFSPLQPGQAPTGRAHSTMTGSGVDARTASSGSSVWEGQLQSLVLSEYASTEMSLHALYMHQLHKQQAQAEPERHVWHRRESDESGESAPDEGGEGARAPQSIPRSASYPCAAPRPGAPETTALHGGFQRRYGGITDPGTVPRVPSHFSRLPLGGWAEDGQSASRHPEPVPEEGSEDELPPQVHKV
- stoichiometry N [4]: 3

B5: ATG9A-mVenus (F68C + N379C) (natural protein, human, UniProt Q7Z3C6 1-839, looked up)
chain: MAQFDTEYQRLEASYSDSPPGEEDLLVHVAEGSKSPWHHIENLDLFFSRVYNLHQKNGFTCMLIGEICELMQFLFVVAFTTFLVSCVDYDILFANKMVNHSLHPTEPVKVTLPDAFLPAQVCSARIQENGSLITILVIAGVFWIHRLIKFIYNICCYWEIHSFYLHALRIPMSALPYCTWQEVQARIVQTQKEHQICIHKRELTELDIYHRILRFQNYMVALVNKSLLPLRFRLPGLGEAVFFTRGLKYNFELILFWGPGSLFLNEWSLKAEYKRGGQRLELAQRLSNRILWIGIANFLLCPLILIWQILYAFFSYAEVLKREPGALGARCWSLYGRCYLRHFNELEHELQSRLNRGYKPASKYMNCFLSPLLTLLAKCGAFFAGSILAVLIALTIYDEDVLAVEHVLTTVTLLGVTVTVCRSFIPDQHMVFCPEQLLRVILAHIHYMPDHWQGNAHRSQTRDEFAQLFQYKAVFILEELLSPIVTPLILIFCLRPRALEIIDFFRNFTVEVVGVGDTCSFAQMDVRQHGHPQWLSAGQTEASVYQQAEDGKTELSLMHFAITNPGWQPPRESTAFLGFLKEQVQRDGAAASLAQGGLLPENALFTSIQSLQSESEPLSLIANVVAGSSCRGPPLPRDLQGSRHRAEVASALRSFSPLQPGQAPTGRAHSTMTGSGVDARTASSGSSVWEGQLQSLVLSEYASTEMSLHALYMHQLHKQQAQAEPERHVWHRRESDESGESAPDEGGEGARAPQSIPRSASYPCAAPRPGAPETTALHGGFQRRYGGITDPGTVPRVPSHFSRLPLGGWAEDGQSASRHPEPVPEEGSEDELPPQVHKV
- stoichiometry N [4]: 3
